Reference: patent US20230192902A1 (published 2023)
Where a chain is given by its changes, count along the chain named. Like-named read-outs stand apart in the source and are kept apart here.

T1: human ABCG2 (UniProt Q9UNQ0 1-655)
T1 chain: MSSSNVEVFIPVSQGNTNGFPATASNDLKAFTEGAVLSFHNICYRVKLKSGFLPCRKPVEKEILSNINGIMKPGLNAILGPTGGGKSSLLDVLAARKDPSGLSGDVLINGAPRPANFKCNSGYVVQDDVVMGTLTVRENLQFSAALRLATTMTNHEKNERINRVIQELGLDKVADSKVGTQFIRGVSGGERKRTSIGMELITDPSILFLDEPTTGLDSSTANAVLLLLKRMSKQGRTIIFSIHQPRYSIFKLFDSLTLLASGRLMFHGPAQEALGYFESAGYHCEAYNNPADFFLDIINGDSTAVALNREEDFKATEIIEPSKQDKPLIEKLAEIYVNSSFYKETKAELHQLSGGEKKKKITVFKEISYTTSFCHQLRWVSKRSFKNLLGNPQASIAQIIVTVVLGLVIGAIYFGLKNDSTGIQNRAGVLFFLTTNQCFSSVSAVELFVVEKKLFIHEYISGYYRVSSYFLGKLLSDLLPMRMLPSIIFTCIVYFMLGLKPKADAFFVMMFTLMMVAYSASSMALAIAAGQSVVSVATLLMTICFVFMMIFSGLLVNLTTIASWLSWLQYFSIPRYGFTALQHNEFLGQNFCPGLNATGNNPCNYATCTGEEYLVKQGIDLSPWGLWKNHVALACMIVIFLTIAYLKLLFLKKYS

B1: 5D3hVH-v1DD KT9KK 5D3hVL-v1 (bispecific antibody, V domains shown)
VH 1: EVQLQESGPGLVKPSETLSLTCTVSGFSITSDYAWNWIRQPPGKGLEWMGYINFDGGTTYNPSLRGRITISRDTSKNQFSLKLSSVTAADTAVYYCATFYGAKGTLDYWGQGTLVTVSS
VH 2: not shown
VL: DIQLTQSPSSLSASVGDRVTITCKASGYILNRLAWYQQKPGKAPKLLISGATSLETGFPSRFSGSGSGKDYTLTISSLQPEDFATYYCQQYWSTPWTFGGGTKLEIK
B2: 5D3hVHv2 5D3hVKv1 (antibody, V domains shown)
VH: B1 VH 1 with M49I, I68V
VL: B1 VL
B3: 5D3hVHv1 5D3hVKv1 (antibody, V domains shown)
VH: B1 VH 1
VL: B1 VL
B4: 5D3hVHv1DD KT9KK 5D3hVKv1 (bispecific antibody, V domains shown)
VH 1: B1 VH 1
VH 2: not shown
VL: B1 VL
B5: anti-ABCG2 antibody 5D3 (antibody, V domains shown)
VH: QVQLQESGPGLVKPSQSLSLTCTVTGFSITSDYAWNWIRQFPGKKLEWMGYINFDGGTTYNPSLRGRISITRDTSKNQFFLQLRSVTPEDTATYYCATFYGAKGTLDYWGQGTSVTVSS
VL: DIVLTQSPSSFSVSLGDRVTISCKASGYILNRLAWYQQKPGNAPRLLISGATSLETGFPSRFSGTGSGKDYTLSISSLQTEDVGTYYCQQYWSTPWTFGGGTKLEIR

Experiments:
human PD-L1 = human PD-L1 (human, UniProt Q9NZQ7 19-290); assay: flow cytometry cell binding; 293T-KT9OX cells
human PD-L1, sequence (Q9NZQ7 19-290): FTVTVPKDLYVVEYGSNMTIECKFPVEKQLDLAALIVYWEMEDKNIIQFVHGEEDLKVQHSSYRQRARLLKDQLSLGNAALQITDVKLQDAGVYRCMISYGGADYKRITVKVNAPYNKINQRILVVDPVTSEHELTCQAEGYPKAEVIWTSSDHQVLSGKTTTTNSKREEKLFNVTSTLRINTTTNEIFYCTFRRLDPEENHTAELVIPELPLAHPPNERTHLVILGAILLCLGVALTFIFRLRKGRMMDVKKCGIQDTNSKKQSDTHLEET

human ABCG2 [1] = target: T1, human ABCG2; assay: flow cytometry cell binding; 293T-G2OX cells
human ABCG2 [2] = target: T1, human ABCG2; assay: flow cytometry cell binding; 293T-G2OX cells
293T-G2KT9OX = assay: flow cytometry cell binding; cells expressing both ABCG2 and PD-L1

| Binder | EC50 (human ABCG2 [2]) [nM] | further results |
| --- | --- | --- |
| B1 |  | EC50 (human PD-L1): 4.18 nM; EC50 (human ABCG2 [1]): 7.1 nM |
| B2 | 2.2 |  |
| B3 | 2.2 |  |
| B4 |  | EC50 (293T-G2KT9OX): 10.8 nM |
| B5 | 1.5 |  |
